Test results published in publication PMC12043515, “Stepwise neofunctionalization of the NF-κB family member Rel during vertebrate evolution”.

Tests used:
[1] = target: T1, Rel RHR homodimer (UniProt P15307 8-297); assay: SPR; less stable than κB2 and κB1; EMSA: 10 mM Tris-HCl pH 7.5, 150 mM NaCl, 1 mM DTT, 1 mM EDTA, 5% glycerol, 80 ng/ul dI-dC, 200 ng/ul BSA, 4 C; off-rate with 100-fold unlabeled consensus. SPR: 10 mM HEPES pH 7.5, 150 mM NaCl, 3 mM EDTA, 0.005% Tween 20, 10 C; conditions: protein: recombinant; chain copies: 2; label: biotin
T1 sequence (P15307 8-297): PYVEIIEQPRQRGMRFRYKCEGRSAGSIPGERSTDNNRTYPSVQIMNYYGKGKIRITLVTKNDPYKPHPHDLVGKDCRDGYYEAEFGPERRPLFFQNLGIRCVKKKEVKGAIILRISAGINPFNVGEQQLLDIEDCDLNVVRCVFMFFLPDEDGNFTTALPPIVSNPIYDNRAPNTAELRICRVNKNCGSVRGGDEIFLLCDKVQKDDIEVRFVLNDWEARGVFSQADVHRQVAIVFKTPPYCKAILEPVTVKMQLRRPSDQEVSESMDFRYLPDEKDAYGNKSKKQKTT

[2] = target: T1, Rel RHR homodimer; assay: EMSA; EMSA: 10 mM Tris-HCl pH 7.5, 150 mM NaCl, 1 mM DTT, 1 mM EDTA, 5% glycerol, 80 ng/ul dI-dC, 200 ng/ul BSA, 4 C; off-rate with 100-fold unlabeled consensus. SPR: 10 mM HEPES pH 7.5, 150 mM NaCl, 3 mM EDTA, 0.005% Tween 20, 10 C; conditions: protein: recombinant; chain copies: 2; label: 32P
[3] = target: T1, Rel RHR homodimer; assay: SPR; most stable of Il12b motifs; EMSA: 10 mM Tris-HCl pH 7.5, 150 mM NaCl, 1 mM DTT, 1 mM EDTA, 5% glycerol, 80 ng/ul dI-dC, 200 ng/ul BSA, 4 C; off-rate with 100-fold unlabeled consensus. SPR: 10 mM HEPES pH 7.5, 150 mM NaCl, 3 mM EDTA, 0.005% Tween 20, 10 C; conditions: protein: recombinant; chain copies: 2; label: biotin
[4] = target: T1, Rel RHR homodimer; assay: SPR; less stable than κB2; EMSA: 10 mM Tris-HCl pH 7.5, 150 mM NaCl, 1 mM DTT, 1 mM EDTA, 5% glycerol, 80 ng/ul dI-dC, 200 ng/ul BSA, 4 C; off-rate with 100-fold unlabeled consensus. SPR: 10 mM HEPES pH 7.5, 150 mM NaCl, 3 mM EDTA, 0.005% Tween 20, 10 C; conditions: protein: recombinant; chain copies: 2; label: biotin
[5] = target: RelA RHR homodimer (UniProt Q04207 19-306); assay: EMSA; only one dimer bound; EMSA: 10 mM Tris-HCl pH 7.5, 150 mM NaCl, 1 mM DTT, 1 mM EDTA, 5% glycerol, 80 ng/ul dI-dC, 200 ng/ul BSA, 4 C; off-rate with 100-fold unlabeled consensus. SPR: 10 mM HEPES pH 7.5, 150 mM NaCl, 3 mM EDTA, 0.005% Tween 20, 10 C; conditions: protein: recombinant; chain copies: 2; label: 32P
RelA RHR homodimer, sequence (Q04207 19-306): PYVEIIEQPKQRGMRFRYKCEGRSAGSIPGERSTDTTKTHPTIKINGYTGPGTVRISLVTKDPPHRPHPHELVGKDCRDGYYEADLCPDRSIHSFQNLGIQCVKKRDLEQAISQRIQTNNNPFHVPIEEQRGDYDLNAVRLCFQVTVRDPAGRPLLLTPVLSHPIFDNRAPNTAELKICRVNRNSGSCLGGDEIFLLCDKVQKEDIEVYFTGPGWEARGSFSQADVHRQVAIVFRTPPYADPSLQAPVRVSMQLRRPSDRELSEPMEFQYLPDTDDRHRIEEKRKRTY

[6] = target: T1, Rel RHR homodimer; assay: EMSA; three dimers bound simultaneously; EMSA: 10 mM Tris-HCl pH 7.5, 150 mM NaCl, 1 mM DTT, 1 mM EDTA, 5% glycerol, 80 ng/ul dI-dC, 200 ng/ul BSA, 4 C; off-rate with 100-fold unlabeled consensus. SPR: 10 mM HEPES pH 7.5, 150 mM NaCl, 3 mM EDTA, 0.005% Tween 20, 10 C; conditions: protein: recombinant; chain copies: 2; label: 32P
[7] = target: T1, Rel RHR homodimer; assay: SPR; slower off-rate than on …; EMSA: 10 mM Tris-HCl pH 7.5, 150 mM NaCl, 1 mM DTT, 1 mM EDTA, 5% glycerol, 80 ng/ul dI-dC, 200 ng/ul BSA, 4 C; off-rate with 100-fold unlabeled consensus. SPR: 10 mM HEPES pH 7.5, 150 mM NaCl, 3 mM EDTA, 0.005% Tween 20, 10 C; conditions: protein: recombinant; chain copies: 2; label: biotin

B1: κB3 (SPR) (dsDNA)
DNA 1: CCTAACATCAAGAATGTTTTTGATGTTAGG
DNA 2: CCTAACATCAAAAACATTCTTGATGTTAGG
[1]
  binding result: binds

B2: κB1 EMSA probe (dsDNA)
DNA 1: CCTAACATCAGGAACTTCTTTGATGTTAGG
DNA 2: CCTAACATCAAAGAAGTTCCTGATGTTAGG
[2]
  binding result: binds

B3: κB2 EMSA probe (dsDNA)
DNA 1: CCTAACATCAAAAATTCCCCGATGTTAGG
DNA 2: CCTAACATCGGGGAATTTTTGATGTTAGG
[2]
  binding result: binds

B4: κB2 (SPR) (dsDNA)
DNA 1: CCTAACATCAAAAATTCCCCTGATGTTAGG
DNA 2: CCTAACATCAGGGGAATTTTTGATGTTAGG
[3]
  binding result: binds

B5: κB3 EMSA probe (dsDNA)
DNA 1: CCTAACATCAAGAATGTTTTTGATGTTAGG
DNA 2: CCTAACATCAAAAACATTCTTGATGTTAGG
[2]
  binding result: binds

B6: κB1 (SPR) (dsDNA)
DNA 1: CCTAACATCAGGAACTTCTTTGATGTTAGG
DNA 2: CCTAACATCAAAGAAGTTCCTGATGTTAGG
[4]
  binding result: binds

B7: κB1+2+3 (dsDNA)
DNA 1: AGGAACTTCTTAAAATTCCCCCAGAATGTTTTGACA
DNA 2: TGTCAAAACATTCTGGGGGAATTTTAAGAAGTTCCT
[5]
  binding result: binds
[6]
  binding result: binds

B8: SPR GGGGGTTTTT (dsDNA)
DNA 1: CCTAACATCAGGGGGTTTTTTGATGTTAGG
DNA 2: CCTAACATCAAAAAACCCCCTGATGTTAGG
[7]
  binding result: binds
